Measurements: publication PMC9482650, “Quantitative fragmentomics allow affinity mapping of interactomes” (Nature Communications, 2022)

T1: DVL1, O14640
T1 sequence (O14640 246-333, limits assumed, looked up): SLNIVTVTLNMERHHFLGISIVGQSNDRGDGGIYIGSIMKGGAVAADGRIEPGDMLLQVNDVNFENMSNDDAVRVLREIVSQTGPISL

T2: INTU, Q9ULD6
T2 sequence (Q9ULD6 180-273, limits assumed, looked up): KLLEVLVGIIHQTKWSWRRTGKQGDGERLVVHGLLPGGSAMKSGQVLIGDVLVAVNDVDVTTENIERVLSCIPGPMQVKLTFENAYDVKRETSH

T3: MPDZ_11, O75970
T3 sequence (O75970 1720-1817, limits assumed, looked up): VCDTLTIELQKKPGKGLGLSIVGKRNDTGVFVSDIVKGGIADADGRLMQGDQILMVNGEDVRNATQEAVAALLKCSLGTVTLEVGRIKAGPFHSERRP

T4: MPDZ_13, O75970
T4 sequence (O75970 1982-2070, limits assumed, looked up): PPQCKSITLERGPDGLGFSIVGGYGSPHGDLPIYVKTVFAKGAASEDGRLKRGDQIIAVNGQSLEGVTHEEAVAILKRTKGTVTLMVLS

T5: MPP1, Q00013
T5 sequence (Q00013 66-162, limits assumed, looked up): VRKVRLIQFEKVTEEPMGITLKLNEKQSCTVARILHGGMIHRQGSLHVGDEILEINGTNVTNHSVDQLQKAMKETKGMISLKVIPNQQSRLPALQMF

T6: NHERF3_2, Q5T2W1
T6 sequence (Q5T2W1 129-225, limits assumed, looked up): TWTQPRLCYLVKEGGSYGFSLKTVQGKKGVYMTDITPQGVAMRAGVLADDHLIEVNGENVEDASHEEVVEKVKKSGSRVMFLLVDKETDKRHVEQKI

T7: PDZD2_1, O15018
T7 sequence (O15018 80-192, limits assumed, looked up): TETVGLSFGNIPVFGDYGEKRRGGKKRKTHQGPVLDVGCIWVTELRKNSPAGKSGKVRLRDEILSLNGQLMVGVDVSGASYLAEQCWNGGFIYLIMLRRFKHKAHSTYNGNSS

T8: PDZD2_3, O15018
T8 sequence (O15018 581-682, limits assumed, looked up): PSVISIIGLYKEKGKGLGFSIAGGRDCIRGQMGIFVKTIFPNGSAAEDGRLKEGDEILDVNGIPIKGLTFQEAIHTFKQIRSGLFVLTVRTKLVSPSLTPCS

T9: PDZD2_6, O15018
T9 sequence (O15018 2745-2839, limits assumed, looked up): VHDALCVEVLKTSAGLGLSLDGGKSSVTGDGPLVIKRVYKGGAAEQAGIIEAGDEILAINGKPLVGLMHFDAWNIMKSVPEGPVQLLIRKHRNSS

T10: PTPN13_4, Q12923
T10 sequence (Q12923 1783-1878, limits assumed, looked up): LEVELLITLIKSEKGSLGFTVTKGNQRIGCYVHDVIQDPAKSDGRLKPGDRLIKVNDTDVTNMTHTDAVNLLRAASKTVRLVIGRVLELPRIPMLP

T11: PTPN13_5, Q12923
T11 sequence (Q12923 1877-1975, limits assumed, looked up): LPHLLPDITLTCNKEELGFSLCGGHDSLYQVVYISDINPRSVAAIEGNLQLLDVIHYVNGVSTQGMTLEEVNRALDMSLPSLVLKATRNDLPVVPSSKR

T12: SHANK2, Q9UPX8
T12 sequence (Q9UPX8 621-730, limits assumed, looked up): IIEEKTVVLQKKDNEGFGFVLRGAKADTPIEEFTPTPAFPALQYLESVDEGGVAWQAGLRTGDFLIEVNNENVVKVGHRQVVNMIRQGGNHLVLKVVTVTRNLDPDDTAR

T13: SYNPO2L, Q9H987
T13 sequence (Q9H987 1-98, limits assumed, looked up): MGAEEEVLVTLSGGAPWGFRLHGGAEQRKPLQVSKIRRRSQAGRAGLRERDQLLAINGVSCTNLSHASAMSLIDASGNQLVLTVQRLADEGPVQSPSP


Columns and labels:
Assay in all cases: holdup assay
Parameters in all cases: key: below the threshold = too weak to quantify, mostly under pKd 3.1 to 4
Conditions in all cases: plain residues with an end cap or a label only (N-terminal biotin on a linker: ttds)
DLG2_1, Q15700 = molecular target: DLG2_1, Q15700
DVL1, O14640 = molecular target: T1, DVL1, O14640
IL16_2, Q14005 = molecular target: IL16_2, Q14005
Sequence of IL16_2, Q14005 (Q14005 350-450): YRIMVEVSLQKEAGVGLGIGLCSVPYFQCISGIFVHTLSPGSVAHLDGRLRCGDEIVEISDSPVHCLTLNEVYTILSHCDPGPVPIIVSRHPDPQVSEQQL

INTU, Q9ULD6 = molecular target: T2, INTU, Q9ULD6
LIMK1, P53667 = molecular target: LIMK1, P53667
Sequence of LIMK1, P53667 (P53667 155-268): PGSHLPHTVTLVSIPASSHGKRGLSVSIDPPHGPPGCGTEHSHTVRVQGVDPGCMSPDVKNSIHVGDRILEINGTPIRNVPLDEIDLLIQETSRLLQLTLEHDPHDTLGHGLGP

MAGI3_4, Q5TCQ9 = molecular target: MAGI3_4, Q5TCQ9
Sequence of MAGI3_4, Q5TCQ9 (Q5TCQ9 716-815): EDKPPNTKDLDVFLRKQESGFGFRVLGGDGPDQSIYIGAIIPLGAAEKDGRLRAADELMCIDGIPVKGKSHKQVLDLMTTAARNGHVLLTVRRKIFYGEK

MAGI3_5, Q5TCQ9 = molecular target: MAGI3_5, Q5TCQ9
Sequence of MAGI3_5, Q5TCQ9 (Q5TCQ9 847-941): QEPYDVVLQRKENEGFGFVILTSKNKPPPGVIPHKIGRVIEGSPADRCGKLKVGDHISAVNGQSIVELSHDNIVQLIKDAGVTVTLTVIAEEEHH

MPDZ_11, O75970 = molecular target: T3, MPDZ_11, O75970
MPDZ_13, O75970 = molecular target: T4, MPDZ_13, O75970
MPP1, Q00013 = molecular target: T5, MPP1, Q00013
NHERF3_2, Q5T2W1 = molecular target: T6, NHERF3_2, Q5T2W1
PARD3B_2, Q8TEW8 = molecular target: PARD3B_2, Q8TEW8
Sequence of PARD3B_2, Q8TEW8 (Q8TEW8 376-471): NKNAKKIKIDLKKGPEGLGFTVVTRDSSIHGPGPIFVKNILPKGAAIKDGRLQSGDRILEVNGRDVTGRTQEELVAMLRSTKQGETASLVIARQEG

PDZD2_1, O15018 = molecular target: T7, PDZD2_1, O15018
PDZD2_3, O15018 = molecular target: T8, PDZD2_3, O15018
PDZD2_6, O15018 = molecular target: T9, PDZD2_6, O15018
PTPN13_4, Q12923 = molecular target: T10, PTPN13_4, Q12923
PTPN13_5, Q12923 = molecular target: T11, PTPN13_5, Q12923
Q70Z35 = molecular target: Q70Z35
Q8TB45 = molecular target: Q8TB45
Q8TDM6 = molecular target: Q8TDM6
Q8TEW0 = molecular target: Q8TEW0
Q92614 = molecular target: Q92614
Q9UDY2 = molecular target: Q9UDY2
SHANK2, Q9UPX8 = molecular target: T12, SHANK2, Q9UPX8
SYNPO2L, Q9H987 = molecular target: T13, SYNPO2L, Q9H987

Binder	pKd (DLG2_1, Q15700)	pKd (DVL1, O14640)	pKd (IL16_2, Q14005)	pKd (INTU, Q9ULD6)	pKd (LIMK1, P53667)	pKd (MAGI3_4, Q5TCQ9)	pKd (MAGI3_5, Q5TCQ9)	pKd (MPDZ_11, O75970)	pKd (MPDZ_13, O75970)	pKd (MPP1, Q00013)	pKd (NHERF3_2, Q5T2W1)	pKd (PARD3B_2, Q8TEW8)	pKd (PDZD2_1, O15018)	pKd (PDZD2_3, O15018)	pKd (PDZD2_6, O15018)	pKd (PTPN13_4, Q12923)	pKd (PTPN13_5, Q12923)	pKd (Q70Z35)	pKd (SHANK2, Q9UPX8)	pKd (SYNPO2L, Q9H987)	further results
SHSSKGETAV [FZD7, O75084]	4.38	below the threshold	below the threshold	below the threshold	below the threshold	below the threshold	below the threshold	below the threshold	below the threshold	4.85	below the threshold	4.42	below the threshold	below the threshold	below the threshold	below the threshold	below the threshold	below the threshold	below the threshold	below the threshold	pKd (Q8TB45): below the threshold; pKd (Q8TDM6): below the threshold; pKd (Q8TEW0): below the threshold; pKd (Q92614): below the threshold; pKd (Q9UDY2): below the threshold
SGGKRKETLV [NET1, Q7Z628]	4.87	below the threshold	below the threshold	below the threshold	–	below the threshold	3.72	3.72	3.75	below the threshold	below the threshold	below the threshold	below the threshold	below the threshold	below the threshold	below the threshold	below the threshold	–	–	below the threshold	–
SSIDLWETAL [SLC15A5, A6NIM6]	below the threshold	below the threshold	below the threshold	below the threshold	below the threshold	below the threshold	5.57	below the threshold	below the threshold	below the threshold	below the threshold	below the threshold	below the threshold	5.1	below the threshold	below the threshold	4.86	below the threshold	5.87	below the threshold	pKd (Q8TB45): below the threshold; pKd (Q8TDM6): below the threshold; pKd (Q8TEW0): below the threshold; pKd (Q92614): below the threshold; pKd (Q9UDY2): below the threshold
SRSRRRETAL [HPV33-E6, P06427]	5.13	4.23	below the threshold	4.54	below the threshold	below the threshold	below the threshold	below the threshold	below the threshold	4.79	below the threshold	below the threshold	below the threshold	below the threshold	below the threshold	below the threshold	below the threshold	–	below the threshold	below the threshold	–
PPRQRSETQV [HPV82-E6, Q9IR59]	4.32	below the threshold	below the threshold	–	–	below the threshold	below the threshold	below the threshold	below the threshold	5.75	below the threshold	below the threshold	below the threshold	below the threshold	below the threshold	below the threshold	below the threshold	below the threshold	below the threshold	below the threshold	pKd (Q8TB45): below the threshold; pKd (Q8TDM6): below the threshold; pKd (Q8TEW0): below the threshold; pKd (Q92614): below the threshold; pKd (Q9UDY2): below the threshold
KLVIKTETTV [RASSF6, Q6ZTQ3]	4.95	below the threshold	4.38	below the threshold	4.37	below the threshold	below the threshold	below the threshold	below the threshold	5.13	below the threshold	below the threshold	below the threshold	below the threshold	below the threshold	below the threshold	below the threshold	below the threshold	below the threshold	below the threshold	pKd (Q8TB45): below the threshold; pKd (Q8TDM6): below the threshold; pKd (Q8TEW0): below the threshold; pKd (Q92614): below the threshold; pKd (Q9UDY2): below the threshold
